According to article PMC4762649, “Tel1 and Rif2 Regulate MRX Functions in End-Tethering and Repair of DNA Double-Strand Breaks” (PLoS Biology, 2016):

Tests used:
Settings in all cases: both partners purified
Rad50-V1269M = target: T1, Rad50-V1269M (S. cerevisiae, UniProt P12753 1-1312, V1269M); assay: SEC; Rad50 (or Rad50-V1269M), Mre11 and Xrs2 incubated together 5 h on ice; assembled complex separated from unassembled proteins on a Sephacryl S-400 gel filtration column; 0-4°C
T1 construct: Allele isolated after ethyl methanesulfonate mutagenesis; also called Rad50-V1269M mutant; purified Rad50-V1269M; source: overexpressed in yeast, purified (procedure devised for the wild-type protein)
T1 sequence (looked up): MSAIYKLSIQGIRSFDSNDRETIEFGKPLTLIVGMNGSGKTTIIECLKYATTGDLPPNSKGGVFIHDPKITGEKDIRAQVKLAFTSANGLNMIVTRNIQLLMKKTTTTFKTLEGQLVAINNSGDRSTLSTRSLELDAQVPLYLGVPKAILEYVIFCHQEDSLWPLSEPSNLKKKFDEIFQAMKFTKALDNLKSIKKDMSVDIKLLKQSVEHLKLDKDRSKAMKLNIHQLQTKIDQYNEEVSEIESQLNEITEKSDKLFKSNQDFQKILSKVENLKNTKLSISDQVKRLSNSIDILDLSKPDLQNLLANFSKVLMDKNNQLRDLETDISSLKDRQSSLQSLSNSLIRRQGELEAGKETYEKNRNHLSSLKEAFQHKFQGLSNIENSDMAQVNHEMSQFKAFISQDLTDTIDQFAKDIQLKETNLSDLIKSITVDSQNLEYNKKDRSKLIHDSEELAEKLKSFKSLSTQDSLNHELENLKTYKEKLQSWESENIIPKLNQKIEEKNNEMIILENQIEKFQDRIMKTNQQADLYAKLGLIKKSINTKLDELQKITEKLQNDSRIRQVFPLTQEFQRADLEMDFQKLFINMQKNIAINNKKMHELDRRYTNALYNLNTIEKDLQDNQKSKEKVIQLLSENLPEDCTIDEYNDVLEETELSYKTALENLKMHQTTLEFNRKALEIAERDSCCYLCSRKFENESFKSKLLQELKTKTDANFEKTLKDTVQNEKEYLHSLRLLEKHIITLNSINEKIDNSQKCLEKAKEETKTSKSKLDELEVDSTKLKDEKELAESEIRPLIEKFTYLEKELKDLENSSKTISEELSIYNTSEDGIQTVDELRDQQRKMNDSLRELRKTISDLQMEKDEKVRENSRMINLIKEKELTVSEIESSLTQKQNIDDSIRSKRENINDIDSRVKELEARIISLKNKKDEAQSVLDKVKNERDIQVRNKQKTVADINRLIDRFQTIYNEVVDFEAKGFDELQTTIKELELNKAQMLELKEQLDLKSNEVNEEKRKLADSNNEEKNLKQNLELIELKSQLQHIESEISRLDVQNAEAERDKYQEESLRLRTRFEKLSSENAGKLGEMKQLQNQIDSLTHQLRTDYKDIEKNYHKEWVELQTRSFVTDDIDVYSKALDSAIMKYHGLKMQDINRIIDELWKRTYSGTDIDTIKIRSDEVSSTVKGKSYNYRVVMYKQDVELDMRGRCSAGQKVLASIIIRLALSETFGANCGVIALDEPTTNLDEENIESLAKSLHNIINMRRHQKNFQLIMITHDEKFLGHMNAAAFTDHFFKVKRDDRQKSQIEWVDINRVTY

Rad50 = target: T2, Rad50 (S. cerevisiae, UniProt P12753 1-1312); assay: as above
T2 construct: Rad50, S. cerevisiae, subunit of the MRX complex; also called wild-type Rad50; purified Rad50; source: overexpressed in yeast, purified
T2 sequence (looked up): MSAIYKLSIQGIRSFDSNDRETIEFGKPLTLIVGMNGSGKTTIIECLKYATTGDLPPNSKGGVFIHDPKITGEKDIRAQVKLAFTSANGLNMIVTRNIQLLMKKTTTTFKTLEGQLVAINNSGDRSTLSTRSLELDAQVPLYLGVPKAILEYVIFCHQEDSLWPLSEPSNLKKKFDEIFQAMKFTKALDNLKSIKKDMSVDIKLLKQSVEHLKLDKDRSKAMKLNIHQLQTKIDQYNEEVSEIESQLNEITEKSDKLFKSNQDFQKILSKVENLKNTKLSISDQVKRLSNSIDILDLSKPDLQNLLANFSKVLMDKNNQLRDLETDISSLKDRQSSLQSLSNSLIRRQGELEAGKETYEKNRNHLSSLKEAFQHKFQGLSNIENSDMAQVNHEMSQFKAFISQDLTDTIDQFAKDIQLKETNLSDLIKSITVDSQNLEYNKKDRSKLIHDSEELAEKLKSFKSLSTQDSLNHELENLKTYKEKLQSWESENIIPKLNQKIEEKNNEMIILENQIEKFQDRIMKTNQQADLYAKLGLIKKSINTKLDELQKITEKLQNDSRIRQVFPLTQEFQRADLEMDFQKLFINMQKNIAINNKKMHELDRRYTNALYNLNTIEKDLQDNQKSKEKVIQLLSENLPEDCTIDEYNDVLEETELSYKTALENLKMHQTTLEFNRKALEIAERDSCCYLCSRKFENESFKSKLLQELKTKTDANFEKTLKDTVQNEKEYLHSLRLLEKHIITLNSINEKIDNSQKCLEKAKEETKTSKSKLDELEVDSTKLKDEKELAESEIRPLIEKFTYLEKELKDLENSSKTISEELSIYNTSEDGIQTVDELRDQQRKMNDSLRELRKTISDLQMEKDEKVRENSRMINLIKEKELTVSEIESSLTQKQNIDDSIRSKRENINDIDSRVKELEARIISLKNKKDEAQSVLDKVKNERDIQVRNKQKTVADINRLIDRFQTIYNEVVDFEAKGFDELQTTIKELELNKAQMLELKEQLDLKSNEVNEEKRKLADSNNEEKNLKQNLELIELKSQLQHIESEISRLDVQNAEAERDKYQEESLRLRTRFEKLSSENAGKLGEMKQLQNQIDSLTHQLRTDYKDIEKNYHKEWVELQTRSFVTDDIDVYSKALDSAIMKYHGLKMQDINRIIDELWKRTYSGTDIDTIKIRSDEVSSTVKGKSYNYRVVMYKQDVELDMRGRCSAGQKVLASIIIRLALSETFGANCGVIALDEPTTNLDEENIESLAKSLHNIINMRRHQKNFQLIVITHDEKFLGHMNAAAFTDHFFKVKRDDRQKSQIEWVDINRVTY

[1] = target: T3, MR^V1269MX complex (Mre11-Rad50-V1269M-Xrs2) (S. cerevisiae, UniProt P32829 1-692; P12753 1-1312; P33301 1-854, V1269M); assay: pull-down; Flag-tagged Tel1 (50 ng) incubated with MR^V1269MX (100 ng) in the absence or presence of Rif2 (100 ng); captured on anti-Flag resin; immunoblotting
T3 construct: Mre11, S. cerevisiae; as m3; Rad50, S. cerevisiae, with V1269M; as m2; Xrs2, S. cerevisiae; as m4; also called mutant MRX complex; source: subunits overexpressed in yeast and purified, assembled and separated by gel filtration; copies: + +

B1: Mre11 (natural protein, S. cerevisiae, UniProt P32829 1-692, looked up)
chain: MDYPDPDTIRILITTDNHVGYNENDPITGDDSWKTFHEVMMLAKNNNVDMVVQSGDLFHVNKPSKKSLYQVLKTLRLCCMGDKPCELELLSDPSQVFHYDEFTNVNYEDPNFNISIPVFGISGNHDDASGDSLLCPMDILHATGLINHFGKVIESDKIKVVPLLFQKGSTKLALYGLAAVRDERLFRTFKDGGVTFEVPTMREGEWFNLMCVHQNHTGHTNTAFLPEQFLPDFLDMVIWGHEHECIPNLVHNPIKNFDVLQPGSSVATSLCEAEAQPKYVFILDIKYGEAPKMTPIPLETIRTFKMKSISLQDVPHLRPHDKDATSKYLIEQVEEMIRDANEETKQKLADDGEGDMVAELPKPLIRLRVDYSAPSNTQSPIDYQVENPRRFSNRFVGRVANGNNVVQFYKKRSPVTRSKKSGINGTSISDRDVEKLFSESGGELEVQTLVNDLLNKMQLSLLPEVGLNEAVKKFVDKDEKTALKEFISHEISNEVGILSTNEEFLRTDDAEEMKALIKQVKRANSVRPTPPKENDETNFAFNGNGLDSFRSSNREVRTGSPDITQSHVDNESRITHISQAESSKPTSKPKRVRTATKKKIPAFSDSTVISDAENELGDNNDAQDDVDIDENDIIMVSTDEEDASYGLLNGRKTKTKTRPAASTKTASRRGKGRASRTPKTDILGSLLAKKRK
notes: Mre11, S. cerevisiae, subunit of the MRX complex; also called purified Mre11; source: overexpressed in yeast, purified
B1: binds (Rad50-V1269M).

B2: Xrs2 (natural protein, S. cerevisiae, UniProt P33301 1-854, looked up)
chain: MWVVRYQNTLEDGSISFISCCLQAFKTYSIGRSSKNPLIIKNDKSISRQHITFKWEINNSSDLKHSSLCLVNKGKLTSLNKKFMKVGETFTINASDVLKSTIIELGTTPIRIEFEWINEVWNIPPHLTQFRTMLSEYGISTEISINDIPANLMISDYPKSEDNSIRELYALVSTIPMKKSRFLMELCNTLLPTSKTNLKFDEMWNDMISNPEYNVFDFDPNILLSKFMRLNNIRVLTTIKSEPRLSSLLRTFNINLFAFDNIDSLYKYVDSLEASTEYLILTTTDKKENGKILCTIKTMLTSIIDGTLSAVINMKGASSRTLDNGKFDQISEGMSTILKTSRAPEVEASPVVSKKRKLNRRRVLPLDSLDFFAGGLSTKTLSENRSLTDAKRLNCGAESKTVISSPNIAEADEKHAPFLQNALKPTEDIGKKSGHSSPGAIIVSSPNLGTVNTSEDSLDKSLQSHKLPQPSLPEVAGIGSQTISSNSADYETAAVNSMDDAEVTKNFRVNHHQNIEQPSKNIRKLSNYSREISSPLQENCKSPVKELSIKEKSGTPHAFVEAIQETKNREVKRVKSTIVELKDEELSEEAINQLKNLAIVEPSNNLLRKSFDSEGNKTSRTTEKWENSLMEPEWHKRKNFKTFVKVRPKSKAHKEEGKNNTQSSDFIRNAAFLITRNYVPLKKYSKKDTTTKWGTEENEDMFALTEMERFGSNTFMSDNINSNTIQKRSQALNRFTNEDSSNEGEEDSFSFSRCSGTAASVQPLKNKIFITDEDDLGDIDDKSDRLNHRENNRNLFVVKEMNLRPNLSEECSKQSRHSRSATSRSRGSFGASNNGDGDDDDDDGPKFTFKRRKG
notes: Xrs2, S. cerevisiae, subunit of the MRX complex; also called purified Xrs2; source: overexpressed in yeast, purified
B2: binds (Rad50-V1269M); binds (Rad50).

B3: (His)6-tagged Rif2 (natural protein, S. cerevisiae, UniProt Q06208 1-395, looked up)
chain: MEHVDSDFAPIRRSKKVVDSDKIVKAISDDLEQKNFTVLRKLNLVPIKKSVSSPKVCKPSPVKERVDHVFYQKFKSMALQELGTNYLSISYVPSLSKFLSKNLRSMKNCIVFFDKVEHIHQYAGIDRAVSETLSLVDINVVIIEMNDYLMKEGIQSSKSKECIESMGQASYSGQLDFEASEKPSNHTSDLMMMVMRKINNDESIDHIVYFKFEQLDKLSTSTIIEPSKLTEFINVLSVLEKSNNIAFKVLIYSNNVSISSLLSTSLKKKLNTKYTVFEMPILTCAQEQEYLKKMIKFTFDSGSKLLQSYNSLVTCQLNNKESNLAIFFEFLKVFPHPFTYLFNAYTEIIVQSRTFDELLDKIRNRLTIKNYPHSAYNFKKNQRLPLKLTRKVHDR
notes: Rif2, S. cerevisiae; expressed from pET-Rif2 (gift from K. Sugimoto); No removal of the tag is described; the final preparation is called (His)6-Rif2; also called (His)6-Rif2; purified Rif2; source: E. coli BL21 Rosetta, purified (Ni-NTA, SP Sepharose, Mono S, Superdex 200)
B3: binds [1].
